Results taken from publication PMC4388271 (Acta Crystallographica Section D: Biological Crystallography, 2015).

Key:
[1] = target: T1, YpTesB (TesB acyl-CoA thioesterase from Y. pestis) (Yersinia pestis, UniProt A0A3N4BCC7); details: 2.2 A; crystals grown with 1 mM octanoyl-CoA, sodium malonate pH 7.0; CoA between two adjacent chains, in two of four sites
[2] = target: T1, YpTesB (TesB acyl-CoA thioesterase from Y. pestis); details: 100 mM phosphate pH 8.0, 0.1 mM DTNB
[3] = target: TesB acyl-CoA thioesterase from Yersinia pestis (Yersinia pestis); assay: crystal structure
[4] = target: TesB acyl-CoA thioesterase from Yersinia pestis (Yersinia pestis); assay: AUC
[5] = target: TesB acyl-CoA thioesterase from Yersinia pestis (Yersinia pestis); assay: small-angle X-ray scattering (SAXS)
[6] = target: TesB acyl-CoA thioesterase from Yersinia pestis (Yersinia pestis); assay: SEC

Molecule: CC(C)(COP(=O)(O)OP(=O)(O)OC[C@H]1O[C@@H](n2cnc3c(N)ncnc32)[C@H](O)[C@@H]1OP(=O)(O)O)[C@@H](O)C(=O)NCCC(=O)NCCS [CoA]
- X-ray crystallography [1]: revealing the same quaternary arrangement of domains as the apo form with density for two CoA molecules

Molecule: CCCCCCCCCC(=O)SCCNC(=O)CCNC(=O)[C@H](O)C(C)(C)COP(=O)(O)OP(=O)(O)OC[C@H]1O[C@@H](n2cnc3c(N)ncnc32)[C@H](O)[C@@H]1OP(=O)(O)O [C10, decanoyl-CoA]
- DTNB assay of released thiol, 412 nm [2]: The highest activity was exhibited towards medium-chain acyl-CoAs (C6–C10)

Molecule: TesB acyl-CoA thioesterase from Yersinia pestis (enzyme)
- stoichiometry N [3]: 4
- stoichiometry N [4]: 4
- stoichiometry N [5]: 4
- stoichiometry N [6]: 4
